The values that follow come from patent US20190382474A1 (SURFACE ONCOLOGY, published 2019).

Experiment [1] deals with T1, recombinant human IL-27 (human, UniProt Q14213 21-229; Q8NEV9 29-243).
T1 sequence 1: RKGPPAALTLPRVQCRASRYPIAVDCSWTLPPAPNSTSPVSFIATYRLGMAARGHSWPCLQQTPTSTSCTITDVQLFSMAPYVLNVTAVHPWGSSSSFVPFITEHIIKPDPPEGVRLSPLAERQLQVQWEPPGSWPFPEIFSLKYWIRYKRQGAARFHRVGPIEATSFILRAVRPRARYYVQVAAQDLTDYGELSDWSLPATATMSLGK
T1 sequence 2: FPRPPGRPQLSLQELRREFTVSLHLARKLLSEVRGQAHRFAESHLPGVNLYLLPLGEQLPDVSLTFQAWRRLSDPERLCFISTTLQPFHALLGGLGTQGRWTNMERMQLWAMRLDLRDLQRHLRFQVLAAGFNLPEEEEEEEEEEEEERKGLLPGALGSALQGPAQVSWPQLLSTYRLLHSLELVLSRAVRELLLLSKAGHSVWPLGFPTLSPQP
Put plainly: cell-based or functional assay.

Experiment [2] deals with T1, recombinant human IL-27. Kind of experiment: cell-based or functional assay. This is another data set of the same source.
In experiment [3] the target is T2, recombinant mouse IL-27 (mouse, UniProt O35228 19-228; Q8K3I6 29-234, limits assumed).
T2 sequence (looked up) 1: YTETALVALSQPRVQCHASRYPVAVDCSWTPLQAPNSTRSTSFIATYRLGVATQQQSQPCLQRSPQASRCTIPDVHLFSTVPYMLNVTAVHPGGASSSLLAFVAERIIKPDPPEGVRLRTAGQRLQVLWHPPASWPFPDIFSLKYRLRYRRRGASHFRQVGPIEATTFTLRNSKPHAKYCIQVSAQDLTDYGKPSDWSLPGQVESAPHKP
T2 sequence (looked up) 2: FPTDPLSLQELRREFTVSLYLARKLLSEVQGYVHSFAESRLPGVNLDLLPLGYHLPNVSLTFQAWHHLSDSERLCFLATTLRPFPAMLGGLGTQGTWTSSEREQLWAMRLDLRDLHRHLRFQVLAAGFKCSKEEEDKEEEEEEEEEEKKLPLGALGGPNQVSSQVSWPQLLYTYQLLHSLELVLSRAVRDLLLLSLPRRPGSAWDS
Kind of experiment: cell-based or functional assay.

Experiment [4] concerns the target T3, recombinant rat IL-27 (rat, UniProt D3ZPW3 29-234; M0RD76 19-228).
T3 sequence (alpha): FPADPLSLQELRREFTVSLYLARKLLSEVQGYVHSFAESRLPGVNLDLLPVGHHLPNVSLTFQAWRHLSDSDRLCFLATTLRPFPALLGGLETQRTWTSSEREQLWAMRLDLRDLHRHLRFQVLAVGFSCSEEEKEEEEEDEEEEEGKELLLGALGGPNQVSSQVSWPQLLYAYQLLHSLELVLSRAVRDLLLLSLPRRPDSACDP
T3 sequence (beta): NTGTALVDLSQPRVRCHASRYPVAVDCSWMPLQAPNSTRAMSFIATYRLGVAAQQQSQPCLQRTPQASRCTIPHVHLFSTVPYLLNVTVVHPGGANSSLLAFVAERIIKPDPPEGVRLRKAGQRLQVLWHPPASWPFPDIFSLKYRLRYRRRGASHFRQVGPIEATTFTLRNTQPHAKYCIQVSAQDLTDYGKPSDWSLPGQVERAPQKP
Put plainly: cell-based or functional assay.

In experiment [5] the target is T4, recombinant cynomolgus monkey IL-27 (cynomolgus monkey, UniProt A0A2K5WPB7 36-244; A0A2K5UBM6 29-244).
T4 sequence 1: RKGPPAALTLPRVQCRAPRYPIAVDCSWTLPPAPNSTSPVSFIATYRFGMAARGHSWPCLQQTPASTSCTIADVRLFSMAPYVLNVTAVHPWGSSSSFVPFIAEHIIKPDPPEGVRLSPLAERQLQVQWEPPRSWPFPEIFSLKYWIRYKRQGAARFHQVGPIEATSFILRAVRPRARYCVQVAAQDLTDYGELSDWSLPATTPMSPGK
T4 sequence 2: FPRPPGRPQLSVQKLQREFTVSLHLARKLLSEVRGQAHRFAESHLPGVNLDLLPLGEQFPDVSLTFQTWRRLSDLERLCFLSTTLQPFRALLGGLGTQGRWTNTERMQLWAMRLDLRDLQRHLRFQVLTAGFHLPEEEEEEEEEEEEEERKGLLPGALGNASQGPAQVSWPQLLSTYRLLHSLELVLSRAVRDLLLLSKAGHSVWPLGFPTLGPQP
Put plainly: cell-based or functional assay.

A further experiment concerns the target T5, p28 subunit of IL-27 (Homo sapiens (Human), UniProt Q8NEV9 29-243, limits assumed).
T5 construct: the reagent used in the specificity studies is not described; also called IL-27p28
T5 sequence: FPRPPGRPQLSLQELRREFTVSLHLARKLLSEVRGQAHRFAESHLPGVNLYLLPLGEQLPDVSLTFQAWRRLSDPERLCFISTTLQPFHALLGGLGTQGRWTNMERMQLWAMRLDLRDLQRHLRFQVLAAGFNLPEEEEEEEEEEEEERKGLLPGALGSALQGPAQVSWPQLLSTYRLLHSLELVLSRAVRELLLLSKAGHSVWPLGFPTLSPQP
Kind of experiment: biochemical affinity and specificity studies.

The target of a further experiment is T6, EBI3 subunit of IL-27 (Homo sapiens (Human), UniProt Q14213 21-229, limits assumed).
T6 construct: the reagent used in the specificity studies is not described
T6 sequence: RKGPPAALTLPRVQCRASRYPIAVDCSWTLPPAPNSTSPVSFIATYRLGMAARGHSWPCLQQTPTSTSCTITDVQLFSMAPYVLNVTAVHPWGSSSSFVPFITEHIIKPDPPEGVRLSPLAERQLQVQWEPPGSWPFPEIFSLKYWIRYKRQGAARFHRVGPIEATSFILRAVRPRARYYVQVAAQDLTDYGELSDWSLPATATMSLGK
Put plainly: biochemical affinity and specificity studies.

The target in experiment [6] is T1, recombinant human IL-27. Put plainly: SPR (BIACORE 2000) as the paragraph says; values in FIG. 9. (In general: SPR reads the build-up and loss of mass on a sensor chip optically.)
The target in experiment [7] is T2, recombinant mouse IL-27. Kind of experiment: column 'Affinity mIL-27 (M)'; method not given.
Experiment [8] addresses T2, recombinant mouse IL-27. Put plainly: binding kinetics, SRF388 with IL-27 as analyte (instrument not named).
For experiment [9], the target named is T3, recombinant rat IL-27. The description is as above.
The target in experiment [10] is T4, recombinant cynomolgus monkey IL-27. The experiment is described as above.
For experiment [11], the target named is T1, recombinant human IL-27. Put plainly: binding kinetics, SRF388 at 1 ug/mL, IL-27 as analyte at 0 to 5.0 ug/mL (instrument not named). The procedure:
The association and dissociation of recombinant human IL-27 at concentrations ranging from 0 to 5.0 μg/mL with an SRF388 concentration of 1 μg/mL were determined.

The target in experiment [12] is T1, recombinant human IL-27. Kind of experiment: column 'Affinity hIL-27 (M)', property (i); method not given, paragraph 885 names SPR (BIACORE 2000).
Experiment [13] addresses T1, recombinant human IL-27. Kind of experiment: SPR single cycle kinetics, 1:1 model. The procedure:
The antibodies were further characterized by surface plasmon resonance (SPR). Kinetic experiments were performed on a Biacore T200 (GE Healthcare, Uppsala, Sweden). All experiments were run at 25° C. with HBS-P+ running buffer (pH 7.4) (GE Healthcare, Little Chalfont, UK) using hIL-27 (R&D Systems, Abingdon, UK). Human IL-27 (hIL-27) antigen was captured on a CM5 chip to ˜16 RU. Immobilization was carried out at a protein concentration of 1 μg/mL in 10 mM acetate buffer pH 5.0. A three point, three-fold dilution range from 3.3 nM to 30 nM of antibody diluted in HBS-P+ buffer without regeneration between each concentration was used. The association phase for the three injections of increasing concentrations of antibody was monitored for 75 seconds each time and a single dissociation phase was measured for 250 seconds following the last injection of antibody. Regeneration of the hIL-27 surface was conducted using a single injection of 2M MgCl₂ for 120 s. Multiple repeats (n=4) of the chimeric antibody were performed throughout the assay to check the stability of the surface and analyte over the kinetic cycles.

B1: SRF388 (antibody, V domains shown)
VH: EVQLVESGGGLVKPGGSLRLSCAASGFTFRSYGMNWVRQAPGKGLEWVSGISSSGSYIYYADSVKGRFTISRDNAKNSLYLQMNSLRAEDTAVYYCARDGGRTSYTATAHNWFDPWGQGTLVTVSS
VL: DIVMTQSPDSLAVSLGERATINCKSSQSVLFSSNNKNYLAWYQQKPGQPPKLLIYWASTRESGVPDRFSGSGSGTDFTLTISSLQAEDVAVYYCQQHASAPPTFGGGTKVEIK
notes: also called SRF388-A; SRF388-B
For orientation: Kd means the equilibrium constant for the complex coming apart. The koff is the first-order rate constant of dissociation. Broadly, the kon is the rate constant with which the complex forms. Take B1: the “IC50 of inhibition of phosphorylation of STAT1 in HUT-78 cells” value with recombinant human IL-27 [1] was 0.095 µg/mL. For the same molecule, in the experiment with recombinant human IL-27 [1], the “IC50 of inhibition of phosphorylation of STAT1 in U937 cells” value worked out at 0.096 µg/mL. The “IC50 of inhibition of phosphorylation of STAT1 in pooled human PBMCs” value with recombinant human IL-27 [1] was 0.0583 µg/mL. In the experiment with recombinant human IL-27 [2], the “Average IC50, pSTAT1 in peripheral blood T cells, human whole blood” value was 78.4 ng/mL. The “Average IC50, pSTAT1 in peripheral blood T cells, mouse whole blood” value with recombinant mouse IL-27 [3] was 1720 ng/mL. In addition, the “Average IC50, pSTAT1 in peripheral blood T cells, rat whole blood” value with recombinant rat IL-27 [4] was 273 ng/mL. In experiment [5], the “Average IC50, pSTAT1 in peripheral blood T cells, cynomolgus monkey whole blood” value was determined as 118 ng/mL. Also, the results for the binding result with p28 subunit of IL-27 and in the experiment with EBI3 subunit of IL-27 were “binds” and “no binding”, respectively. In addition, the Kd with recombinant human IL-27 [6] was ≤ 15 nM; in the experiment with recombinant mouse IL-27 [7], 0.594 nM; with recombinant mouse IL-27 [8], 4.43 nM; with recombinant rat IL-27 [9], 0.0809 nM; in experiment [10], 0.0374 nM; in the experiment with recombinant human IL-27 [11] it was 0.00386 nM. For the same molecule, the Kd with recombinant human IL-27 [12] was found to be 0.0013 nM. For the same molecule, the koff in the experiment with recombinant mouse IL-27 [8] was found to be 0.000244 s⁻¹; in the experiment with recombinant rat IL-27 [9] it was 0.000189 s⁻¹; in experiment [10] it was 1.19e-05 s⁻¹; in the experiment with recombinant human IL-27 [11], 1.97e-06 s⁻¹. The association rate constant (kon) with recombinant mouse IL-27 [8] is 55000 M⁻¹ s⁻¹; with recombinant rat IL-27 [9] it was 2.34e+06 M⁻¹ s⁻¹; in [10] it was 318000 M⁻¹ s⁻¹; with recombinant human IL-27 [11], 510000 M⁻¹ s⁻¹.

B2: Ab7.6 (antibody, human IgG1, kappa, V domains shown)
VH: EVKLVESGGGLVQPGGSLRLSCAASGFTFTSYSMSWVRQAPGKGLEWVAYISYDGGSAYYPDTVKGRFTISRDNSKKTLYLQMSSLKSEDTAMYYCARHGDYDDDDAMDYWGQGTSVTVSS
VL: DIQMTQSPSSLSASVGDRVTITCRASENIYSYLAWYQQKPGKAPKLLVYNAETLTEGVPSRFSGSGSGTDFTLTISSLQPEDFATYYCQHHYGTPLTFGQGTKLEIKR
notes: human IgG1/kappa
Take B2: the binding result with recombinant human IL-27 [13] is listed as “binds”.
